Laboratory results published in the nanobody polyreactivity screen of Harvey et al. (2022).

Experiment: yeast display, Sf9 membrane polyspecificity reagent, FACS + sequencing; frameworks hold sequencing errors
Summary of the method: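 Galactose-induced (36–48 hours) yeast carrying a synthetic nanobody display library were exposed to 10% biotinylated, detergent-solubilized Sf9 membrane reagent at 4 °C for 1 hour. FACS followed streptavidin microbead enrichment, using low and high (top ~1%) gates for expression (anti-HA) and reagent binding (streptavidin). Colony PCR, MiSeq 2 × 250 sequencing and CDR-length filtering followed. Labels for polyreactivity reflect the gate of origin.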

Row | Sequence | polyreactivity (PSR sort gate)
1 | QVQLVESGGGLVQAGGSLRLSCAASGRIFGYNAMGWSRQAPGKERELFAAITTSGGSTYYADSVKGRFTISRDNAKNTVYLQMNSLKPEDTAVYYCARDSLQVFYPYASDDYWGQGTQVTVSS | low polyreactivity
2 | QVQLVESGGGLVQAGGSLRLSCAASGRIFGYNAMGWSRQAPGKERELGAAISWSGGSTFYADSVKGRFTISRDNAKNTVYLQMNSLKPEDTAVYYCAADSQDGYYYWGQGTQVTVSS | low polyreactivity
3 | QVQLVESGGGLVQAGGSLRLSCAASGRIFGYNAMGWYRQAPGKERELVAVITYSGGSTYYADSVKGRFTISRDNAKNTVYLQMNSLKPEDTAVYYCNARPIDRYSGSGKQWPDYYYWGQGTQVTVSS | low polyreactivity
4 | QVQLVESGGGLVQAGGSLRLSCAASGRIFGYYAMGCYRQAPGKERELVAAIRWGGGRTYADSVKGRFTISRDNAKNTVYLQMNSLKPEDTAVDYCAARFTRTRPLWRARYGYWGQGTQVTVSS | high polyreactivity
5 | QVQLVESGGGLVQAGGSLRLSCAASGRIFGYYAMGWYIQAHGKERELVAAINSGSRTYYADSVKGRFTISRDNAKNTVYLQMNSLKPEDTAVYYCAARVRYPPYRSSDGQRGGYWGQGTQVTVSS | high polyreactivity
6 | QVQLVESGGGLVQAGGSLRLSCAASGRIFGYYAMGWYRLAPGKERELVAAITSGGRTTYADSVKGRFTISRDNAKNTVYVQMNSLKPEDTAVYYCAKEYPRYSSPYDYWGQGTQVTVSS | low polyreactivity
7 | QVQLVESGGGLVQAGGSLRLSCAASGRIFGYYAMGWYRQAPGKEMELVARITWSGGDTYYADSVKGRFTISRDNAKNTVYLQMNSLKPEDTAVYYCAADYLDSTYGYVYGWDDYWGQGTQVTVSS | low polyreactivity
8 | QVQLVESGGGLVQAGGSLRLSCAASGRIFGYYAMGWYRQAPGKERELVAAINSGSRTYYADSVKGRFTISRDNAKNTVYLQMNSLKPEDTAVYYCAARVRYPPYRSSDGQRGGYWGQGTQVTVSS | high polyreactivity
9 | QVQLVESGGGLVQAGGSLRLSCAASGRIFGYYAMGWYRQAPGKERELVAAISSSDGSTYYADSVKGRFTISRDNAKNTVYLQMNSLKPEDTAVYYCAASYYNWDVYQLSYRYDYWGQGTQVTVSS | low polyreactivity
10 | QVQLVESGGGLVQAGGSLRLSCAASGRIFGYYTMGWYRQAPGKEREFVASISTTGGSTYYADSVKGRFTISRDNAKNTVYLQMNSLKPEDTAVYYCNVYYWYGSRGSYALGKEYDYWGQGTQVTVSS | high polyreactivity
11 | QVQLVESGGGLVQAGGSLRLSCAASGRIFGYYTMGWYRQAPGKERELVAGITRRGGRTYYADSVKGRFTISRDNAKNTVYLQMNSLKPEDTAVYYCAVRSGVNFYYWGQGTQVTVSS | high polyreactivity
12 | QVQLVESGGGLVQAGGSLRLSCAASGRIFGYYTMGWYRQAPWKESELVARIRRNGVSTYYADSVKGRFTISRDNEKNTVYLQMNSLKPEDTAVYYCAAGYSINFKYDYWGQGTQVTVSS | high polyreactivity
13 | QVQLVESGGGLVQAGGSLRLSCAASGRIFHANAMGWYRQAPGKERELVAGISRNGGRTYYADSVKGRFTISRDNAKNTVYLQMNSLKPEDSAVYYCNALHWHSNELDYYWGQGTQVTVSS | high polyreactivity
14 | QVQLVESGGGLVQAGGSLRLSCAASGRIFHANAMGWYRQAPGKERELVAGISRNGGRTYYADSVKGRFTISRDNAKNTVYLQMNSLKPEDTAVYYCAARVWGSSQYYYWGQGTQVTVSS | high polyreactivity
15 | QVQLVESGGGLVQAGGSLRLSCAASGRIFHFYAMGWYRQAPGKERELVAAITSRTGNTYYADSVKGRFTISRDNAKNTVYLQMNSLKPEDTAVYYCAAKLVNALLHYRNWNHINYWGQGTQVTVSS | low polyreactivity
16 | QVQLVESGGGLVQAGGSLRLSCAASGRIFHFYAMGWYRQAPGKERELVAAITSRTGNTYYADSVKGRYTISRDNAKNTVYLQMNSLKPEDTAVYYCAAKLVNALLHYRNWNHNNYWGQGTQVNVSS | low polyreactivity
17 | QVQLVESGGGLVQAGGSLRLSCAASGRIFHFYAMGWYRQAPGKERELVASITWRGGRTYYADSVKGRFTISRDNAKNTVYLQMNSLKPEDTAVYYCAADFRSGFSSSTTPVQSDWGQGTQVTVSS | low polyreactivity
18 | QVQLVESGGGLVQAGGSLRLSCAASGRIFHGYVMGWYRQAPGKERELVAAINQSGTSTYYADSVKGRFTISRDNAKNTVYLQMNSLKPEDTAVYYCAKDWAYRRHWVGFYYWGQGTQVTVSS | low polyreactivity
19 | QVQLVESGGGLVQAGGSLRLSCAASGRIFHNYAMGWYRQAPGKERELVAAISSSGGRTTYADSVKGRFTISRDYAKNTVYLQMNSLKPEDTAVDYCAKRYPHIGDYWGEGTQVTVSS | high polyreactivity
20 | QVQLVESGGGLVQAGGSLRLSCAASGRIFHPNAMGWYIQAPGKERELDAAISRSGSTYYADSVKGRFTISRDNAKNTVYLQMNSLKPEDTAVYYCATQTWSCFSGTPRIYDYWGQGTQVTVSS | high polyreactivity
21 | QVQLVESGGGLVQAGGSLRLSCAASGRIFHQYAIGWSRPAPGKERELVAAISSGGGSTYYADSVKGRFTISRDNAKNTVYLQMNSLKPEDNAVYYCAAVYDYDRGVNYWGQGTQVTVSS | high polyreactivity
22 | QVQLVESGGGLVQAGGSLRLSCAASGRIFHVYVMGWYRPAPGKERELVAAITWRGGRTYYADSVKGRFTISRDNAKNTVYLQMNSLKPEDTAVYYCKAVAYWYDYQYDYWGQGTQVTVSS | high polyreactivity

Row | Sequence | polyreactivity (PSR sort gate)
23 | QVQLVESGGGLVQAGGSLRLSCAASGRIFHWYAMGWYRQAPGKERELVATANTSYADSVKGRFTISRDNAKNTVYLQMNSLKPEDTAVYYCATVGPRGRSLGDYWGQGTQVTVSS | low polyreactivity
24 | QVQLVESGGGLVQAGGSLRLSCAASGRIFHYNAMGWYRQAPGKERELVARITWTGGSTYYADSVKGRFTISRDNAKNTVYLQMNSLKPEDNAVYYCAAKWSYTKGRYYYWGQGTQVTVSS | high polyreactivity
25 | QVQLVESGGGLVQAGGSLRLSCAASGRIFIGNAMGWYRQAPGKERELVAAISKRGGSTYYADSVKGRFTISRDNAKNTVYLQMNSLKPVDTAVYYCAVDGYVGVADYEYDNWGQGTQVTVSS | low polyreactivity
26 | QVQLVESGGGLVQAGGSLRLSCAASGRIFIGYAMGWYRQAPGKERELVAAITSGGRTYYADSVKGRFTISRDNAKNTVYLQMNSLKPEDTAVYYCYRAAFRYRYDYWGQGTQVTVSS | high polyreactivity
27 | QVQLVESGGGLVQAGGSLRLSCAASGRIFIIYAMGWYRQAPGKERELVAAINRGATTNYADSVKGRFTISRDNAKNTVYLQMNSLKPEDTAVYYCAARGVAKLRRVGYWGQGTQVTVSS | high polyreactivity
28 | QVQLVESGGGLVQAGGSLRLSCAASGRIFIKYAMGWYRQAPGKERELVAAISQSGGSTYYADSVKGRFTISRDNAKNTVYLQMNSLKPEDTAVYYCAVRLYYSIRYYYWGQGTQVTVSS | high polyreactivity
29 | QVQLVESGGGLVQAGGSLRLSCAASGRIFIPNTMGWYIQAPGKERELVAAITWSGSSTYYADSVKGRFTISRDNAKNTVYLQMNSLKPEDTAVYYCAAYPSCYVVVSKGDYWGQGTQVTVSS | high polyreactivity
30 | QVQLVESGGGLVQAGGSLRLSCAASGRIFIPYVMGWYRQAPGKERELVAVITESGGSTYYADSVKGRFTISRDNAKNTVYLQMNSLKPEDTAVYYCATRYGRGARTYHYYYWGQGTQVTVSS | high polyreactivity
31 | QVQLVESGGGLVQAGGSLRLSCAASGRIFIQNTMGWYRQAPGKERELVAAITRSGGRTYYADSVKGRFTISRDNAKNTVYLQMNSLKPEDTAVYYCAAVARTVPSYSYNYWGQGTQVTVSS | high polyreactivity
32 | QVQLVESGGGLVQAGGSLRLSCAASGRIFIRNAMGWYRPAPGKERELVAAITQSGGSTYYADSVKGRFTISRDNAKNTVYLQMNSLKPEDTAVYYCAADGDNPYLHEEDYWGQGTQVTVSS | high polyreactivity
33 | QVQLVESGGGLVQAGGSLRLSCAASGRIFIRYAMGWYRQAPGKERELVAAISRSGGSTYYADSVKGRITISRDNAKNTVYLQMNSLKPEDTAVYYCAAVSSSTWLEYYYWGQGTQVTVSS | high polyreactivity
34 | QVQLVESGGGLVQAGGSLRLSCAASGRIFIRYAMGWYRQAPGKERELVAVITTGGSTNADSVKGRFTISRDNAKNTVYLQMNSVKPEDTAVYYCNAKVRVYTRGYFRYWYDYWGQGTQVTVSS | high polyreactivity
35 | QVQLVESGGGLVQAGGSLRLSCAASGRIFITNAMGWYRQAPGKERELVAAIRRRGGNTYYADSVKGRFTISRDNANNTVYLQINSLKPEDTAVYYCAVYPRPYKYNYWGQGTQVTVSS | high polyreactivity
36 | QVQLVESGGGLVQAGGSLRLSCAASGRIFITNTMGWYRQAPGKERELVAAISRTGGSTYYADSVKGRFTISRDNAKNTVYLQMNSLKPEDTAVYYCNADWYGQLWWGVDYWGQGTQVTVSS | high polyreactivity
37 | QVQLVESGGGLVQAGGSLRLSCAASGRIFIVYVMVWYRQAPGKESELVAAITGRGGSTYYADSVKGRFTISHDNAKNTVYLQMNSLKPEDTAVYYCDDYDGGGYDSWGQGNQVTVSS | low polyreactivity
38 | QVQLVESGGGLVQAGGSLRLSCAASGRIFIWYGMGWYRQAPGKERELVADISSTGSTNYADSVKGRFTISRDNAKNTVYLQMNSLKPEDTAVYYCAADPETPYYTTYDYDYWGQGTQVTVSS | low polyreactivity
39 | QVQLVESGGGLVQAGGSLRLSCAASGRIFIYNAMGWSRQAPGIERELVARIRDRGDSTNYADSVKGRFTISRDNAKNTVYLQMNSLKPEDTAVYYCAAQPWLRYYYWGQGTQVTVSS | low polyreactivity
40 | QVQLVESGGGLVQAGGSLRLSCAASGRIFIYYAMGRYRQAPGKERELVAGIDYSGGSTYYADSVKGRFTISRDNAKNTVYLQMNSLKPEDTAVYFCAAGKYRHYYGRSFYRFDYWGKGTQVTVSS | high polyreactivity
41 | QVQLVESGGGLVQAGGSLRLSCAASGRIFIYYTMGWYRQAPGKERELVAAINSGGSTKYADSVKGRFTISRDNAKNTVYLQMNSLKPEDTAVYYCARRGGFSYYYWGQGTQVTVSS | high polyreactivity
42 | QVQLVESGGGLVQAGGSLRLSCAASGRIFKGYAMGWYRQAPGKERELVAAITWRGGTTYYADSVKGRFTISRDNAKNTVYLQMNSLKPEDTAVYYCATTRYPRSYDYYYWGQGTQVTVSS | high polyreactivity
43 | QVQLVESGGGLVQAGGSLRLSCAASGRIFKLYAMGWYRQAPGKERELVAAISKSGGNTYADSVKGRFTISRDNAKNPVYLQMNSLKPEDTAVYYCAATVQSTSDPFDYLGQGTQVTVSS | low polyreactivity
